Measured values from PMC7485568.

Target: recombinant human C2
Assay: ECL_MSD
Settings: pH 6.0; 0.2 mol/L citric acid, 0.2 mol/L sodium citrate; 150 mmol/L NaCl

Substance: ARGX-117
- EC50: 32.2 µg/mL
